T1: YlSDR (Yarrowia lipolytica, UniProt Q6CEE9)
T1 construct: gene YALI0B16192g; full length, N-terminal His-tag (vector pK470), E. coli BL21 (DE3) Gold, purified
T1 sequence (Q6CEE9 1-278): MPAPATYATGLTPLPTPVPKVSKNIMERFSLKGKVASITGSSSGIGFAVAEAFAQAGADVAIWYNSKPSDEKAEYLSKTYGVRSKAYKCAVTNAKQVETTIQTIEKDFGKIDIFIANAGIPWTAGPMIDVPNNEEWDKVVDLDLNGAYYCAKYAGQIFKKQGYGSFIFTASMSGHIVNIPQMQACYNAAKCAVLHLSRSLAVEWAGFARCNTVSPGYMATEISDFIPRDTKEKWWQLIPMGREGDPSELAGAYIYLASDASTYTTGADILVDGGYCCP

B1: YlADH2 (Yarrowia lipolytica CLIB122) (protein)
chain: MSAPVIPKTQKGVIFETSGGPLMYKDIPVPVPADDEILVNVKFSGVCHTDLHAWKGDWPLDTKLPLVGGHEGAGVVVAKGKNVDTFEIGDYAGIKWINKACYTCEFCQVAAEPNCPNATMSGYTHDGSFQQYATANAVQAAHIPKNCDLAEIAPILCAGITVYKALKTAAILAGQWVAVTGAGGGLGTLAVQYAKAMGYRVLAIDTGADKEKMCKDLGAEVFIDFAKTKDLVKDVQEATKGGPHAVINVSVSEFAVNQSIEYVRTLGTVVLVGLPAGAVCKSPIFQQVARSIQIKGSYVGNRADSQEAIEFFSRGLVKSPIIIIGLSELEKVYKLMEEGKIAGRYVLDTSK

Assays:
YlSDR = biological target: T1, YlSDR; assay: chiral GC of product after acetylation; format: biochemical; settings: reduction to (R)-2-octanol; NADPH 11 mM; citrate 50 mM, pH 5.0, 28 °C; Tween 20
purified protein [1] = substrate: CCCCCCC(C)=O; assay: purified protein; format: biochemical, Yarrowia lipolytica; settings: reduction, NADH co-substrate, potassium phosphate 50 mM, 40 mM KCl, pH 7.0, 28 °C, Tween 20
purified protein [2] = substrate: NC(=O)c1ccc[n+]([C@@H]2O[C@H](COP(=O)(O)OP(=O)(O)OC[C@H]3O[C@@H](n4cnc5c(N)ncnc54)[C@H](O)[C@@H]3O)[C@@H](O)[C@H]2O)c1; assay: purified protein; format: biochemical, Yarrowia lipolytica; settings: oxidation of 10 mM (S)-2-octanol, potassium phosphate 50 mM, 40 mM KCl, pH 8.5, 28 °C, varied: cofactor
purified protein [3] = substrate: CCCCCC[C@H](C)O; assay: purified protein; format: biochemical, Yarrowia lipolytica; settings: oxidation, NAD+ co-substrate, potassium phosphate 50 mM, 40 mM KCl, pH 8.5, 28 °C, Tween 20

| Molecule | chiral GC of product after acetylation (YlSDR) | Km (purified protein [1]) | kcat (purified protein [1]) | kcat/Km (purified protein [1]) | Km (purified protein [2]) | kcat (purified protein [2]) | kcat/Km (purified protein [2]) | Km (purified protein [3]) | kcat (purified protein [3]) | kcat/Km (purified protein [3]) |
| --- | --- | --- | --- | --- | --- | --- | --- | --- | --- | --- |
| CCCCCCC(C)=O [2-octanone] | (R)-2-octanol was prepared under the following conditions: purified YlSDR in citrate buffer | – | – | – | – | – | – | – | – | – |
| B1 | – | 5.38 ± 0.76 mM | 0.56 ± 0.04 s⁻¹ | 100 ± 160 M⁻¹ s⁻¹ | 17.8 ± 1.26 mM | 3.43 ± 0.05 s⁻¹ | 190 ± 70 M⁻¹ s⁻¹ | 1.42 ± 0.03 mM | 1.05 ± 0.52 s⁻¹ | 740 ± 500 M⁻¹ s⁻¹ |

From publication PMC4030946, “Enantiocomplementary Yarrowia lipolytica Oxidoreductases: Alcohol Dehydrogenase 2 and Short Chain Dehydrogenase/Reductase” (Biomolecules, 2013)
